Literature values as cited in paper PMC5936680.

Biological target: Hemoglobin αβ dimer (Homo sapiens) (UniProt P69905)

Substance: Hemoglobin αβ dimer (from UniProt P69905)
- Kd: 1000 nM
